Reference: paper PMC9084902, “Low-Molecular Weight Protamine Overcomes Chondroitin Sulfate Inhibition of Neural Regeneration” (Frontiers in Cell and Developmental Biology, 2022)
Ends that are not written are not given here.

Experiments:
cervical spinal cord = experiment: distribution of fluorescent LMWP to spinal cord after subcutaneous administration; format: in vivo, mouse; conditions: 2 h, confocal
Protocol: The TAMRA-labelled LMWP was obtained from commercial provider Caslo ApS (DK-2800, Kongens Lyngby, Denmark). Sixteen micrograms of TAMRA-LMWPor unconjugated TAMRA (in 200 ul of 0.9% NaCl) was injected subcutaneously to upper back area to healthy adult mice (n = 2–3 animals/group). At the end of the experiment (2 h after injection), the animals were perfused with PBS and then with 4% paraformaldehyde (PFA) in PBS. The spinal cord was dissected and further fixed in PFA overnight. One hundred µm-thick longitudinal sections of the cervical spinal cord were cut with vibratome and imaged with Zeiss LSM880 confocal, 20x objective.

brain cortex tissue = experiment: in vivo TUNEL apoptosis assay after cortical injection; conditions: 1.5 μl cortical injection, 0.1 or 1 mg/ml, 3 days
Protocol: For TUNEL apoptosis assay, 1.5 μl of protamine (0.1 mg/ml or 1 mg/ml) or LMWP (0.1 mg/ml or 1 mg/ml) was bilaterally injected to the adult C57Bl6 mouse (n = 10 total) into motor (ML: 1.5; AP: 2) and somatosensory (ML: 1.5; AP: −1.8) cerebral cortex 500–700 micrometers below the brain surface (4 injection sites per concentration of injected protamine and 6 injections per concentration of injected LMWP). After 3 days the animals were anesthetized with pentobarbital sodium and perfused with PBS and then 4%PFA. After paraffine embedding the brains were cut into 7 µm coronal sections. Staining was performed according to the protocol recommended by the commercial TUNEL assay kit (Dead End Fluorometric TUNEL System, Promega). Sections treated with DNase I were used as positive controls. Vectoshield medium with DAPI (Vector Laboratories) was used to visualize nuclei. Images were collected with Axio Imager M.1 fluorescent microscope (Zeiss), AxioCam HR3 digital camera and x10 0.45 NA objective (Carl Zeiss Microscopy) and analyzed with automatic cell counting using FIJI software (Image J, open-source). The fractions of TUNEL positive cells were calculated and averaged over 5 sections per mouse per injection place.

hippocampal neurons [1] = experiment: neurite outgrowth on aggrecan substrate, hippocampal neurons; format: cell-based, Wistar rat; conditions: hippocampal neurons (E17 rat), 2 days on aggrecan; 10 μg/ml, precoated with aggrecan or soluble in medium; about 70 neurons/replicate, normalized to control; n = 3; Figure 2L
Protocol: (§1) The cortex or hippocampus were obtained from 17 days-old Wistar rat embryos and transferred to ice-cold preparation solution. Neurons were further isolated exactly as described earlier in Sahu’s publication ([Sahu et al., 2019]). Primary rat cortical or hippocampal neurons (E17 Wistar rats) were cultured in 96-well plates at the density of 20000 cells/well in Neurobasal medium supplemented with B27 serum substitute, penicillin, streptomycin and L-glutamate for 2 days in vitro (DIV). The plates were precoated with aggrecan (5 ug/ml, 150 µl/well). Protamine or protamine peptides were added to the culture medium at different concentrations. To analyze the effect of protamine or its fragment on neurite outgrowth, the plates were coated with 10 μg/ml of protamine or LMWP. For the experiment with chondroitinase, the aggrecan-coated plates were treated with chondroitinase ABC (Amsbio AMS. E1028, lot CF0029) for 4 h followed by 2 times washing with PBS before cell plating, and the cell culture imaging was carried out after 3 DIV incubation with 4 uM LMWP added to the medium. Neurite outgrowth was imaged with phase contrast microscopy (Olympus IX70 microscope and Retiga 2000R digital camera) using both x10 and x20 objectives. Processes of neurons over the diameter of the neuronal soma were interpreted as neurites. Neurite length was measured with ImageJ software and averaged from 2 to 3 independent experiments with 1–2 technical replicas in each independent experiment.

[2] = tested on: PTPRZ (protein tyrosine phosphatase receptor type Z); conditions: ref Kuboyama et al., 2017; cited from earlier work
From the text: In the case of HB-GAM we have identified glypican-1 as a neuron surface receptor using unbiased mass spectrometry search of neuron binding sites for the substrate-attached HB-GAM ([Paveliev et al., 2016]). […] Interaction of glypican-1 with LMWP also appears likely since LMWP binds to heparin/heparan sulfate chains. Another possible cell surface receptor of LMWP is the transmembrane receptor PTPRZ (protein tyrosine ph ...

hippocampal neurons [3] = experiment: cell toxicity seen in neuronal morphology / neuronal cells in vitro; format: cell-based, Wistar rat
Protocol: as §1

[4] = attenuated total reflectance Fourier transform infrared spectroscopy; ref Umerska et al., 2015; cited from earlier work
From the text: Chondroitin sulfates (CS) bare multiple negative charges due to sulfate and carboxyl groups while protamine is a polycation at physiological pH values. […] As an FDA-approved drug for human use as anti-heparin, protamine might in addition have potential to overcome the regeneration inhibiting effe ...

[5] = ref Kaneda et al., 2005; Bromfield et al., 2013; cited from earlier work
From the text: Protamine is a small 33 amino acid long protein that takes part in DNA packing during spermatogenesis ([Kasinsky et al., 2011]). Over 60% of the salmon protamine sequence is comprised of arginines so that it interacts strongly with negatively charged DNA phosphates in vivo and potentially with any other negatively charged molecules. […] Protamine sulfate is therefore widely used as a drug in cardiopulmonary bypass surgery to stop the effect of heparin ([Kaneda et al., 2005]; [Bromfield et al. ... || The CS chains even enhance the neurite outgrowth-promoting effect of HB-GAM, and we have ended up in a model according to which the CS chains of the CSPGs display a positive role by concentrating HB-GAM on the matrix and presenting it to neuron surface receptors. According to our model, two polycationic regions separated by a linker are essential to reverse the CS inhibition of neurite outgrowth ([Paveliev et al., 2016]; [Rauvala et al., 2017]). To test our hypothesis we decided to search for peptide structures that are similar to HB-GAM and display similar binding properties. Protamine displa ...

hippocampal neurons [6] = experiment: neurite outgrowth on precoated plastic without aggrecan, hippocampal neurons; format: cell-based, Wistar rat; conditions: precoated 10 μg/ml on plastic, no aggrecan, 2 days; about 70 neurons/replicate; p < 0.0001, n = 7
Protocol: as §1, with “Processes of neurons over the diameter of the neuronal soma were interpreted as neurites.” left out

[7] = tested on: oligodendrocyte differentiation; conditions: ref Kuboyama et al., 2017; cited from earlier work
From the text: The CS chains even enhance the neurite outgrowth-promoting effect of HB-GAM, and we have ended up in a model according to which the CS chains of the CSPGs display a positive role by concentrating HB-GAM on the matrix and presenting it to neuron surface receptors. According to our model, two polycationic regions separated by a linker are essential to reverse the CS inhibition of neurite outgrowth ([Paveliev et al., 2016]; [Rauvala et al., 2017]). To test our hypothesis we decided to search for peptide structures that are similar to HB-GAM and display similar binding properties. Protamine displa ...

[8] = solid phase binding of mutated PTPσ ectodomain to aggrecan; conditions: 80 nM, 10 μg/ml aggrecan coating, overnight 4°C, HRP anti-Fc/OPD 492 nm
From the text: The N-terminal extracellular part of PTPσ (protein tyrosine phosphatase sigma; PTPRS) that contains the three Ig domains (amino acids 1-321) and mediates CSPG binding ([Shen et al., 2009]) was cloned using the PTPσ cDNA kindly provided by Dr. John Flanagan (Harvard University). The PTPσ mutant lacking the CS binding site in the Ig1 domain was produced as described ([Shen et al., 2009]). The recombinants were produced as Fc-tagged proteins in 293T HEK cells and purified on protein A Sepharose.
The competition assay for LMWP in binding of PTPσ to aggrecan was done in a similar way as earlier ([Paveliev et al., 2016]). Briefly, after overnight coating with 10 μg/ml aggrecan (150 ul/well) at 4°C 96-well tissue culture plates (Nunc) were washed two times with 0.05% Tween-20 in PBS and were blocked for 1 h at room temperature with 1%BSA and 0.05% Tween-20 in PBS. The recombinant wild type PTPσ ectodomain or the mutated ectodomain lacking CS binding (80 nM) were mixed with different concentrations of LMWP in 1% BSA and 0.05% Tween-20 in PBS, and were incubated in the plates overnight at 4°C. After washing with 0.05% Tween20 (3 times, room temperature), the wells were incubated for 1 h (room temperature) with HRP conjugated goat anti-human FC part of IgG (1:5000, in 1% BSA and 0.05% Tween20 PBS) to detect the bound PTPσ. […]

## TAMRA-LMWP: fluorescent TAMRA-labelled LMWP (Caslo ApS) (VSRRRRRRGGRRRR; also: TAMRA label, site not given here)
Cervical spinal cord; 16 µg s.c. in 200 µl 0.9% NaCl, compared to TAMRA or noninjected animals, n = 2–3
  fluorescent signal in spinal cord parenchyma: clear fluorescent signal in the spinal cord parenchyma
Cervical spinal cord; 16 µg s.c., cervical region
  parenchymal accumulation in spinal cord: Parenchymal accumulation
  perivascular accumulation in spinal cord: Perivascular accumulation

## protamine
Brain cortex tissue
  apoptotic cells in brain cortex (TUNEL staining): high amount of apoptotic cells in brain cortex tissue
Hippocampal neurons [1]
  reversal of the inhibitory effect of aggrecan on neurite outgrowth (comparison among fragments): lower efficacy in the neurite outgrowth assay
[2]
  binding to PTPRZ: known to bind protamine
Hippocampal neurons [3]; hippocampal neurons, 2 days on aggrecan, 10 μg/ml, black arrows point to dead cells, Figure 2E,G
  signs of cell toxicity in neuronal morphology: Signs of cell toxicity were observed in neuronal morphology
Hippocampal neurons [3]; neuronal systems, Figures 2, 4
  toxicity for neuronal cells (summary): toxic for neuronal cells
[4]
  polyion complexation with CS: Polyion complexation of CS with protamine was demonstrated
[5]
  affinity for heparin: binds the glycosaminoglycan heparin with high affinity
Hippocampal neurons [6]
  total neurite length versus uncoated control: increased the total neurite length as compared to the parallel control cultures
[7]
  effect on CSPG-mediated inhibition of oligodendrocyte differentiation: neutralizes the CSPG-mediated inhibition of oligodendrocyte differentiation

B1: recombinant ectodomain of PTPσ mutated in a critical lysine residue: PTPσ mutant lacking the CS binding site in the Ig1 domain, Fc-tagged, produced in 293T HEK cells (protein, UniProt Q13332 30-1282, looked up)
extracellular domain: EEPPRFIKEPKDQIGVSGGVASFVCQATGDPKPRVTWNKKGKKVNSQRFETIEFDESAGAVLRIQPLRTPRDENVYECVAQNSVGEITVHAKLTVLREDQLPSGFPNIDMGPQLKVVERTRTATMLCAASGNPDPEITWFKDFLPVDPSASNGRIKQLRSETFESTPIRGALQIESSEETDQGKYECVATNSAGVRYSSPANLYVRELREVRRVAPRFSILPMSHEIMPGGNVNITCVAVGSPMPYVKWMQGAEDLTPEDDMPVGRNVLELTDVKDSANYTCVAMSSLGVIEAVAQITVKSLPKAPGTPMVTENTATSITITWDSGNPDPVSYYVIEYKSKSQDGPYQIKEDITTTRYSIGGLSPNSEYEIWVSAVNSIGQGPPSESVVTRTGEQAPASAPRNVQARMLSATTMIVQWEEPVEPNGLIRGYRVYYTMEPEHPVGNWQKHNVDDSLLTTVGSLLEDETYTVRVLAFTSVGDGPLSDPIQVKTQQGVPGQPMNLRAEARSETSITLSWSPPRQESIIKYELLFREGDHGREVGRTFDPTTSYVVEDLKPNTEYAFRLAARSPQGLGAFTPVVRQRTLQSKPSAPPQDVKCVSVRSTAILVSWRPPPPETHNGALVGYSVRYRPLGSEDPEPKEVNGIPPTTTQILLEALEKWTQYRITTVAHTEVGPGPESSPVVVRTDEDVPSAPPRKVEAEALNATAIRVLWRSPAPGRQHGQIRGYQVHYVRMEGAEARGPPRIKDVMLADAQWETDDTAEYEMVITNLQPETAYSITVAAYTMKGDGARSKPKVVVTKGAVLGRPTLSVQQTPEGSLLARWEPPAGTAEDQVLGYRLQFGREDSTPLATLEFPPSEDRYTASGVHKGATYVFRLAARSRGGLGEEAAEVLSIPEDTPRGHPQILEAAGNASAGTVLLRWLPPVPAERNGAIVKYTVAVREAGALGPARETELPAAAEPGAENALTLQGLKPDTAYDLQVRAHTRRGPGPFSPPVRYRTFLRDQVSPKNFKVKMIMKTSVLLSWEFPDNYNSPTPYKIQYNGLTLDVDGRTTKKLITHLKPHTFYNFVLTNRGSSLGGLQQTVTAWTAFNLLNGKPSVAPKPDADGFIMVYLPDGQSPVPVQSYFIVMVPLRKSRGGQFLTPLGSPEDMDLEELIQDISRLQRRSLRHSRQLEVPRPYIAARFSVLPPTFHPGDQKQYGGFDNRGLEPGHRYVLFVLAVLQKSEPTFAASPFSDPFQLDNPDPQPIVDGEEG
modifications: extracellular domain lysine mutation in Ig1 (position not given); Fc tag
[8]
  binding to CS chains of aggrecan: lacks the ability to bind to CS chains of the aggrecan substrate
